In paper PMC3827224:

Target: rhodamine-labelled fibronectin from human plasma (human)

Row | Substance | decrease of rhodamine-fibronectin incorporation into the extracellular matrix of HDF fibroblasts (fluorescence plate assay), 500 nM bead-immobilized peptide, after 12 and 24 hours [%]
1 | FnBPA-derived peptide containing fibronectin-binding repeats 1-11 (FnBR1-11) (domain or fragment) | 90
2 | F1 functional upstream domain (FUD) peptide of Streptococcus pyogenes F1 (domain or fragment) | 80
